Assay results: the nanobody polyreactivity screen of Harvey et al. (2022)

Assay: yeast display, Sf9 membrane polyspecificity reagent, FACS + sequencing; frameworks hold sequencing errors
Summary of the method: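 In a synthetic yeast display library (Saccharomyces cerevisiae BJ5465), nanobody expression was induced with galactose for 36–48 hours. FACS gates were set low and high (top ~1%) using anti-HA fluorescence for expression and streptavidin fluorescence for binding of the Sf9 membrane reagent. Each polyreactivity label is drawn from the gate of origin.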

| Sequence | polyreactivity (PSR sort gate) |
| --- | --- |
| QVQLVESGGGLVQAGGSLRLSCAASGSTFATYAMVWYRQAPGKERELVAAITSGGSTYYADSVKGRFTISRDNAKNTVYLQMNSLKPEDTAVYYCAARSYGWRRATYYKREEYWGQGTQVTVSS | high polyreactivity |
| QVQLVESGGGLVQAGGSLRLSCAASGSTFATYTMGWYRQAPGKERELVAAISVSGSRTYYADSVKGRFTISRDNAKNTVYLQMNSLKPEDTAVYYCNTLLRPRWSYDYWGQGTQVTVSS | high polyreactivity |
| QVQLVESGGGLVQAGGSLRLSCAASGSTFAVNAMGWYRQAPGKERELVAAISDSDGSTFYADSVKGRFTISRDNAKNTVYLQMNSLKPEDTAVYYCAATVYRVFRYSYLYYYWGQGTQVTVSS | low polyreactivity |
| QVQLVESGGGLVQAGGSLRLSCAASGSTFAVNAMGWYRQAPGKERELVAVITSSGGRTYADSVKGRFTISRDNAKNTVYLQMNSLKPEDTAVYYCAAVQGKVRGGYYWGQGTQVTVSS | high polyreactivity |
| QVQLVESGGGLVQAGGSLRLSCAASGSTFAVYAMGWYRQAPGKERELVAAITRSGGDTYYADSVKGRFTISRDNAKNTVYLQMNSLKPEDTAVYYCAAAPRYGEEYWGQGTQVTVSS | low polyreactivity |
| QVQLVESGGGLVQAGGSLRLSCAASGSTFAVYAMGWYRQAPGKERELVAAITWSGGSTYYADSVKGRFTISRDNAKNTVYLQMNSLKPEDTAVYYCAATLIYHYWQLFIISTMGYWGQGTQVTVSS | low polyreactivity |
| QVQLVESGGGLVQAGGSLRLSCAASGSTFAWYAMGWYRQAPGKERELVAAISRTGRTYYADSVKGRFTISRDNAKNSVYLQMNSLKPEDTAVYYCAAKSIYDGFPYYLFDYWGQGTQVTVSS | high polyreactivity |
| QVQLVESGGGLVQAGGSLRLSCAASGSTFAYNAMGWYRQAPGKERELVAAISFSGGSTYYADSVKGRFTLSRDNAKNTVYLQMNSLKQEDTAVYYCAKRGYPSTNGRQEGYWGQGTQVTVSS | low polyreactivity |
| QVQLVESGGGLVQAGGSLRLSCAASGSTFAYNAMGWYRQAPGKERELVAAISYGGDDTYYADSVKGRFTISRDNAKNTVYLQMNSLKPEDTAVYYCNARSRTYRSALGNLYHYDYWGQGTQVTVSS | high polyreactivity |
| QVQLVESGGGLVQAGGSLRLSCAASGSTFAYNDMGWYRQAPGKERELVADIRSGGNTNYADSVKGRFTISRDNAKNTVYLQMNSLKPEDTAVYYCATDGYRIDVYHPDYRYDYWGQCTQVTVSS | low polyreactivity |
| QVQLVESGGGLVQAGGSLRLSCAASGSTFAYNDMGWYRQAPGKETELVADIRSGGNTNYADSVKGRFTISRDNAKNTVYLQMNSLKPEDTAVYYCATDGYRFDVYHPDYRYDYWGQGTQVTVSS | low polyreactivity |
| QVQLVESGGGLVQAGGSLRLSCAASGSTFAYNTMGWYRQAPGKERELVAAISQRGGSTYADTVKGRFTISRDNAKNTVYLQMNSLKPEENAVYYWAADGYTYKFDYWGQGTQVTVSS | low polyreactivity |
| QVQLVESGGGLVQAGGSLRLSCAASGSTFAYYAMGRYRQAPGKERELVAAISTIAGRTYYADSVKGRFTISRDTAKNSVSLQMNSLNPEDTAFYYCNAYWWFFGGYDYWGQGTQVTVSS | high polyreactivity |
| QVQLVESGGGLVQAGGSLRLSCAASGSTFAYYAMGWYRKAPGKERELVAAISSGGSTYYADSVKGRFTISRDNAKNTVYLQMNSLKPEDTAVYYCNKLWVGKFKRYEFGYWGQGTQVTVSS | low polyreactivity |
| QVQLVESGGGLVQAGGSLRLSCAASGSTFAYYAMGWYRQAPGKEREFVAAISTRGGSTYYADSVKGRFTISRDNAKNTLYLQMNSLKPEDTAVYYCAAGYFNYSWRIRFDYWGQGTQVTVSS | high polyreactivity |
| QVQLVESGGGLVQAGGSLRLSCAASGSTFAYYAMGWYRQAPGKERELVAAINYRATRTYYADSVKGRFTISRDNAKNTVYLQMNSLKPEDTAVYYCAAVSPNTAYDYWGQGTQVTVSS | high polyreactivity |
| QVQLVESGGGLVQAGGSLRLSCAASGSTFAYYAMGWYRQAPGKERELVAAISWRGGSTYYADSVKGRFTISRDNAKNTVYLHMNSLKPEDTAVYYCATLSAWKASSYDYWGQGTQVTVSS | high polyreactivity |
| QVQLVESGGGLVQAGGSLRLSCAASGSTFAYYAMGWYRQAPGKERELVAAISWSGGSTYYADSVKGRFTISRDNAKNTVYLQMNSLKPEDTAVYYCNKRNVLDYDYWGQGTQVTVSS | low polyreactivity |
| QVQLVESGGGLVQAGGSLRLSCAASGSTFAYYAMGWYRQAPGKESELVAAISSGGSTYYADSVKGRFTISRDNAKNTVYLEMFCLKGDDTAVYYCNKLWVGKFKRYEFGYWGQGTQVTVSS | low polyreactivity |
| QVQLVESGGGLVQAGGSLRLSCAASGSTFAYYSMGWYRQAPGKERELVAAISRTGGSTYYADSVKGRFTISRDNAKNTVYLQMNSLKPEDTAVYYCNARAPVGTFDYDYWGQGTQVTVSS | low polyreactivity |
| QVQLVESGGGLVQAGGSLRLSCAASGSTFAYYTMGWYRQAPGKERELVAAISASGGSTYYADSVKGRFTISRDFAKNTVYFQMNSLKPEDTAVYYCNAESYLTGWWVDYWGQGTQVTVSS | low polyreactivity |
